The values that follow come from patent publication US20250302875A1 (AVENCELL EUROPE, published 2025).

Residue numbers refer to the chain shown, from its start. In names and notes the source's numbering stands.

In general, Kd refers to the concentration at which binding is half-saturated. For orientation: koff means the rate constant with which the complex falls apart. The term kon denotes the rate constant with which the complex forms. One may read the EC50 as the concentration needed to bring the measured effect to its halfway point.

Assay [1] addresses T1, soluble recombinant IL13Rα2 ectodomain (human, UniProt Q14627 27-343).
T1 construct: extracellular domain
T1 sequence (looked up): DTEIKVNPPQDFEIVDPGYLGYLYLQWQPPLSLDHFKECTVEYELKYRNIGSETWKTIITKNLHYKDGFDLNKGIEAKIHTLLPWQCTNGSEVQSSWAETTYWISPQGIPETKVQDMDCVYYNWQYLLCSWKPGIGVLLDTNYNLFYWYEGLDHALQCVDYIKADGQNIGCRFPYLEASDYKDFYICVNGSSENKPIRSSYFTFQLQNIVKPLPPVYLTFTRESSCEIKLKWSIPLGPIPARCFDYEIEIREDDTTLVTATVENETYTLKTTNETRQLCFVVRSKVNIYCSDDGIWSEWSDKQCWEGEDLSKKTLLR
The assay can be described thus: SPR, Biacore X100, 1:1 binding model. On the procedure:
Data obtained by surface plasmon resonance were fitted with a “1:1 binding” model using the Biacore X100 Evaluation Software (V2.0.1). The following parameters were calculated from this model: association rate (kₐ), dissociation rate (kd) and the dissociation constant at equilibrium (KD).

In assay [2] the target is T2, IL13Rα2 on cells (recombinant K562-IL13Rα2 cell line, U251-MG cells, PC3 cells) (human, UniProt Q14627 27-380).
T2 construct: whole, on cells; not repeated for the recombinant cell line; also called Interleukin-13 receptor subunit alpha-2
T2 sequence (looked up): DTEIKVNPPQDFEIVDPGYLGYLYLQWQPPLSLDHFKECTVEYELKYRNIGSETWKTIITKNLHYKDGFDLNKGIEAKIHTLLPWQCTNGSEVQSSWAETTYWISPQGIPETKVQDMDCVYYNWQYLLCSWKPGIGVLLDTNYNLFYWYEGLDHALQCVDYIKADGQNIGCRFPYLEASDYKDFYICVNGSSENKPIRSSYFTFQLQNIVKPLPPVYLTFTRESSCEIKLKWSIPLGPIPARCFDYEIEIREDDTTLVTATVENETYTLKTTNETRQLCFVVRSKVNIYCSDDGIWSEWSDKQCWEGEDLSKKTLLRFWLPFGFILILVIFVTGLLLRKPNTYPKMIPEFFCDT
The assay can be described thus: flow cytometry cellular binding assay on recombinant K562-IL13Rα2 cells, two-step immunostaining (anti-His-tag-PE), absolute MFI against TM concentration, four-parameter fit. On the procedure: (§1) Cellular binding of IL13-based targeting modules (TM) was tested on recombinant K562-IL13Rα2 cell line (FIG. 2A), recombinant K562-IL13Rα1 cell line (FIG. 2B) and U251-MG cells (FIG. 2C) (derived from a malignant glioblastoma tumor by explant technique). The affinity of TMs was analyzed by FACS in a two-step immunostaining. The TMs were titrated on an AML cell line with recombinant overexpression of IL13Rα2 or IL13Rα1 or U251-MG cells, respectively, and then detected by a mouse anti-His-tag antibody conjugated to phycoerythrin. A dose-response curve was obtained when the geometric mean fluorescence (MFI) was plotted against the TM concentration.
(§2) The data for the cellular binding of IL13-based TMs on the IL13Rα2-expressing AML cell line and U251-MG cells were fitted using a four-parameter model with a variable slope for sigmoidal curves.
On the technique in general: A flow cytometer gives signals particle by particle.

Assay [3] addresses T3, IL13Rα1 on recombinant K562-IL13Rα1 cell line (UniProt P78552 22-427).
T3 construct: whole, on cells
T3 sequence (looked up): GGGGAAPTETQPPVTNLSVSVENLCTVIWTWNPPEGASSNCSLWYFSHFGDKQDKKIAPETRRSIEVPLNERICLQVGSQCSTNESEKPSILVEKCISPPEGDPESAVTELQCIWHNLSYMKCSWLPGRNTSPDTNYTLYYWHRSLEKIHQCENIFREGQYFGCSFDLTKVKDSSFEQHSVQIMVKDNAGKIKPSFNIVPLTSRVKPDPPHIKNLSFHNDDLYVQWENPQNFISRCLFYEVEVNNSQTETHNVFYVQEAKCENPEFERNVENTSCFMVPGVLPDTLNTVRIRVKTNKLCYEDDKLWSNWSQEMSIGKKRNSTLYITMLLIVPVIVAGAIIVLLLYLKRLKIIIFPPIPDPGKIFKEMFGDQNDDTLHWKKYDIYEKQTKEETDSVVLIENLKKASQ
The assay can be described thus: flow cytometry cellular binding assay on recombinant K562-IL13Rα1 cells, two-step immunostaining (anti-His-tag-PE), absolute MFI against TM concentration. As for the experimental part:
as §1

For assay [4], the target named is T2, IL13Rα2 on cells (recombinant …). The assay can be described thus: flow cytometry cellular binding assay on U251-MG cells, two-step immunostaining (anti-His-tag-PE), absolute MFI against TM concentration, four-parameter fit. On the procedure:
as §1, §2

Assay [5] shares this target. The assay can be described thus: cell-based or functional assay.
For assay [6] the target is unchanged. The assay can be described thus: cell-based or functional assay. This is another data set of the same source.
In assay [7] the target is T1, soluble recombinant IL13Rα2 ectodomain. Briefly: SPR, Biacore X100, two-state reaction model. As for the experimental part:
(§3) Data obtained by surface plasmon resonance were fitted with a “two-state reaction” model using the Biacore X100 Evaluation Software (V2.0.1). The following parameters were calculated from this model: association rate (kₐ), dissociation rate (kd) and the dissociation constant at equilibrium (KD).

Assay [8] deals with T2, IL13Rα2 on cells (recombinant …). Briefly: flow cytometry, two-step immunostaining, PC3 cells.
Assay [9] concerns the target T1, soluble recombinant IL13Rα2 ectodomain. The assay can be described thus: SPR, Biacore X100, two-state reaction model, Ka1. On the procedure:
as §3
For orientation: Surface plasmon resonance follows binding to a sensor surface in real time, without labels.

Assay [10] shares this target. The assay can be described thus: SPR, Biacore X100, two-state reaction model, Kd1. On the procedure:
as §3

Assay [11] deals with T2, IL13Rα2 on cells (recombinant …). The assay can be described thus: flow cytometry cellular binding, U251-MG cells, mean. On the procedure: (§4) The data were fitted using a four-parameter model with a variable slope for sigmoidal curves. The EC50 value obtained from this model can be interpreted as a representative value of the TM affinity for the cells overexpressing the target receptor.
The mean values were calculated from the results obtained from two independent experiments with three technical replicates each (see Tab. 1).

For assay [12] the target is unchanged. The assay can be described thus: flow cytometry, two-step immunostaining, K562-IL13Rα2 cells. As for the experimental part:
as §1, §4

Assay [13] deals with T3, IL13Rα1 on recombinant K562-IL13Rα1 …. The assay can be described thus: flow cytometry cellular binding assay on recombinant K562-IL13Rα1 cells, two-step immunostaining, MFI against TM concentration. On the procedure: as §1, §4

B1: TM-IL13-E11Y-G30Y (ligand, not shown: small tags and cut ends)
chain (part 1 of 2): GPVPPSTALRYLIEELVNITQNQKAPLCNYSMVWSINLTAGMYCAALESLINVSGCSAIEKTQRMLSGFCPHKVSAGQFSSLHVRDTKIEVAQFVKDLLLHLKKLFREGRFN
chain (part 2 of 2): KPLPEVTDEYHHHHHHHH
For the molecule B1, in assay [1], the Kd was 30 nM, the koff stood at 0.00049 s⁻¹ and the kon is 26000 M⁻¹ s⁻¹. Moreover, the EC50 in assay [2] stood at 26 nM.

B2: TM-IL13-E11Y-M32A (ligand, not shown: small tags and cut ends)
chain (part 1 of 2): B1 chain (part 1 of 2) with Y30G, M32A
chain (part 2 of 2): KPLPEVTDEYHHHHHHHH
Consider B2, for which, in assay [1], the Kd came out at 21 nM, the koff is 0.00073 s⁻¹ and the kon stood at 35000 M⁻¹ s⁻¹. Moreover, the binding result in assay [3] was “no binding (tested: about 5x10^-6 M)”. Further, the EC50 in assay [4] amounted to 1.08 nM. The EC50 in assay [2] came to 14.1 nM.

B3: TM-mu33A1-scFv (scFv)
scFv: EFQVQLQQPGAELVKPGASVKLSCKASGYTFTSHWIHWVKERPGRGLEWIGRIEPNSGGTLYNEKFKTKATLTVDKPSSTAYMQINSLTSEDFAVYYCARWREFDFFDYWGQGTTLTVSSGGGGSGGGGSGGGGSDIVLTQSPATLSVTPGDSVSLSCRASQSISNNLHWYQQKSHESPRLLIKYASQSISGIPSRFSGSGSGTDFTLSISSVETEDFGMYFCQQSNRWPYTFGGGTKLEIKAAAKPLPEVTDEYARGGPGGGGSHHHHHHHH
notes: also called TM based on the parental murine clone 33A1; mu33A1-based TM
For the molecule B3, the “EC50 of lysis of K562-IL13Rα2 cells by switchable CAR T cells” value in assay [5] came out at 0.0068 nM. For the same molecule, in [5], the “EC50 of lysis of PC3 cells by switchable CAR T cells” value worked out at 0.048 nM. Also, the “EC50 (M), mean, lysis of U251-MG cells by UniCAR T cells” value in [6] amounted to 2.8e-11 M. Also, the Kd in assay [7] stood at 1.39 nM. Also, the EC50 in [8] was 1 nM; in [11], 2.5 nM; in [12], 1.68 nM. Moreover, in assay [9], the kon was found to be 871000 M⁻¹ s⁻¹. For the same molecule, the koff in assay [10] was determined as 0.0024 s⁻¹. Also, the binding result in assay [13] is recorded as “no binding (tested: 1x10^-6 M)”.
